Data as given in publication PMC7943577.

Biological target: BOM1093 of Borrelia miyamotoi strain MYK3, 6xHis-tagged on the C terminus, expressed in B. garinii HT59G (Borrelia miyamotoi strain MYK3)
Assay: ELISA; Maxisorp wells coated with 0.5 µg/well sonicated B. garinii HT59G/pBOM1093 in TBS; recombinant human Vn 6.25-400 nM, 2 h at room temperature; detected with mouse anti-human Vn IgG; values of the mock strain (pBSV2) subtracted; KD fitted in Prism

For “recombinant human vitronectin (from UniProt P04004 20-478) (natural protein)”, which Kd is on record?
The Kd was 10.8 nM.
